Data as given in patent US20140348819A1, “Methods of Treating Cancer” (Dana-Farber Cancer Institute, Inc., priority 2011, published 2014).

System: six V600E BRAF melanoma cell lines
Test: Screening of recombinant RTK ligands for ability to confer resistance to BRAFi (PLX4720) or MEKi (PD184352) (Table 4)
Type: cell-based, human
Design: ability of recombinant RTK ligand to confer resistance / ability of recombinant RTK ligand to confer resistance (screening value): scale not given here
Outline: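 Six V600E BRAF melanoma lines treated with PLX4720 or PD184352 after addition of 22 recombinant RTK ligands, scored for drug resistance. Activation of selected RTKs confirmed by western blotting and high-throughput tyrosine kinase phosphorylation profiling.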

B1: flt-3 ligand (FL) (protein, UniProt P49771 27-235, looked up)
Fms-related tyrosine kinase 3 …: TQDCSFQHSPISSDFAVKIRELSDYLLQDYPVTVASNLQDEELCGGLWRLVLAQRWMERLKTVAGSKMQGLLERVNTEIHFVTKCAFQPPPSCLRFVQTNISRLLQETSEQLVALKPWITRQNFSRCLELQCQPDSSTLPPPWSPRPLEATAPTAPQPPLLLLLLLPVGLLLLAAAWCLHWQRTRRRTPRPGEQVPPVPSPQDLLLVEH
In the case of B1, the “ability of recombinant RTK ligand to confer resistance” value (shortened to “ability of recombinant RTK ligand”) (A2058, PD184352 - 1 uM, ligand 0.4 ng/ml) is reported as 1.03, the “ability of recombinant RTK ligand” value (A2058, PD184352 - 1 uM, ligand 1.6 ng/ml) is reported as 0.99 and the “ability of recombinant RTK ligand” value (A2058, PD184352 - 1 uM, ligand 6.25 ng/ml) is reported as 1.00. The “ability of recombinant RTK ligand” value (A2058, PD184352 - 1 uM, ligand 25 ng/ml) was 1.02, the “ability of recombinant RTK ligand” value (A2058, PD184352 - 1 uM, ligand 100 ng/ml) was 0.89 and the “ability of recombinant RTK ligand” value (A2058, PLX4720 - 2 uM, ligand 0.4 ng/ml) was 0.97. For the same molecule, the “ability of recombinant RTK ligand” value (A2058, PLX4720 - 2 uM, ligand 1.6 ng/ml) was 0.98, the “ability of recombinant RTK ligand” value (A2058, PLX4720 - 2 uM, ligand 6.25 ng/ml) was 1.01 and the “ability of recombinant RTK ligand” value (A2058, PLX4720 - 2 uM, ligand 25 ng/ml) was 1.06. For the same molecule, the “ability of recombinant RTK ligand” value (A2058, PLX4720 - 2 uM, ligand 100 ng/ml) was 0.93, the “ability of recombinant RTK ligand” value (C32, PD184352 - 1 uM, ligand 0.4 ng/ml) was 1.02 and the “ability of recombinant RTK ligand” value (C32, PD184352 - 1 uM, ligand 1.6 ng/ml) was 1.08. The “ability of recombinant RTK ligand” value (C32, PD184352 - 1 uM, ligand 6.25 ng/ml) was 1.10, the “ability of recombinant RTK ligand” value (C32, PD184352 - 1 uM, ligand 25 ng/ml) was 1.08 and the “ability of recombinant RTK ligand” value (C32, PD184352 - 1 uM, ligand 100 ng/ml) was 1.07. For the same molecule, the “ability of recombinant RTK ligand” value (C32, PLX4720 - 2 uM, ligand 0.4 ng/ml) was 0.99, the “ability of recombinant RTK ligand” value (C32, PLX4720 - 2 uM, ligand 1.6 ng/ml) was 0.97 and the “ability of recombinant RTK ligand” value (C32, PLX4720 - 2 uM, ligand 6.25 ng/ml) was 1.00. The “ability of recombinant RTK ligand” value (C32, PLX4720 - 2 uM, ligand 25 ng/ml) was 0.87, the “ability of recombinant RTK ligand” value (C32, PLX4720 - 2 uM, ligand 100 ng/ml) was 0.97 and the “ability of recombinant RTK ligand” value (Colo 829, PD184352 - 1 uM, ligand 0.4 ng/ml) was 1.07. The “ability of recombinant RTK ligand” value (Colo 829, PD184352 - 1 uM, ligand 1.6 ng/ml) was 0.98, the “ability of recombinant RTK ligand” value (Colo 829, PD184352 - 1 uM, ligand 6.25 ng/ml) was 0.97 and the “ability of recombinant RTK ligand” value (Colo 829, PD184352 - 1 uM, ligand 25 ng/ml) was 1.05. For the same molecule, the “ability of recombinant RTK ligand” value (Colo 829, PD184352 - 1 uM, ligand 100 ng/ml) was 0.97, the “ability of recombinant RTK ligand” value (Colo 829, PLX4720 - 2 uM, ligand 0.4 ng/ml) was 1.08 and the “ability of recombinant RTK ligand” value (Colo 829, PLX4720 - 2 uM, ligand 1.6 ng/ml) was 0.98. The “ability of recombinant RTK ligand” value (Colo 829, PLX4720 - 2 uM, ligand 6.25 ng/ml) was 1.00, the “ability of recombinant RTK ligand” value (Colo 829, PLX4720 - 2 uM, ligand 25 ng/ml) was 1.05 and the “ability of recombinant RTK ligand” value (Colo 829, PLX4720 - 2 uM, ligand 100 ng/ml) was 0.97. For the same molecule, the “ability of recombinant RTK ligand” value (G-361, PD184352 - 1 uM, ligand 0.4 ng/ml) was 1.04, the “ability of recombinant RTK ligand” value (G-361, PD184352 - 1 uM, ligand 1.6 ng/ml) was 1.09 and the “ability of recombinant RTK ligand” value (G-361, PD184352 - 1 uM, ligand 6.25 ng/ml) was 0.97. For the same molecule, the “ability of recombinant RTK ligand” value (G-361, PD184352 - 1 uM, ligand 25 ng/ml) was 1.01, the “ability of recombinant RTK ligand” value (G-361, PD184352 - 1 uM, ligand 100 ng/ml) was 0.89 and the “ability of recombinant RTK ligand” value (G-361, PLX4720 - 2 uM, ligand 0.4 ng/ml) was 1.00. For the same molecule, the “ability of recombinant RTK ligand” value (G-361, PLX4720 - 2 uM, ligand 1.6 ng/ml) was 0.87, the “ability of recombinant RTK ligand” value (G-361, PLX4720 - 2 uM, ligand 6.25 ng/ml) was 0.88 and the “ability of recombinant RTK ligand” value (G-361, PLX4720 - 2 uM, ligand 25 ng/ml) was 0.88. For the same molecule, the “ability of recombinant RTK ligand” value (G-361, PLX4720 - 2 uM, ligand 100 ng/ml) was 0.79, the “ability of recombinant RTK ligand” value (SK-MEL-5, PD184352 - 1 uM, ligand 0.4 ng/ml) was 0.97 and the “ability of recombinant RTK ligand” value (SK-MEL-5, PD184352 - 1 uM, ligand 1.6 ng/ml) was 0.97. The “ability of recombinant RTK ligand” value (SK-MEL-5, PD184352 - 1 uM, ligand 6.25 ng/ml) was 1.00, the “ability of recombinant RTK ligand” value (SK-MEL-5, PD184352 - 1 uM, ligand 25 ng/ml) was 0.92 and the “ability of recombinant RTK ligand” value (SK-MEL-5, PD184352 - 1 uM, ligand 100 ng/ml) was 0.90. For the same molecule, the “ability of recombinant RTK ligand” value (SK-MEL-5, PLX4720 - 2 uM, ligand 0.4 ng/ml) was 1.07, the “ability of recombinant RTK ligand” value (SK-MEL-5, PLX4720 - 2 uM, ligand 1.6 ng/ml) was 1.07 and the “ability of recombinant RTK ligand” value (SK-MEL-5, PLX4720 - 2 uM, ligand 6.25 ng/ml) was 1.03. The “ability of recombinant RTK ligand” value (SK-MEL-5, PLX4720 - 2 uM, ligand 25 ng/ml) was 0.93, the “ability of recombinant RTK ligand” value (SK-MEL-5, PLX4720 - 2 uM, ligand 100 ng/ml) was 1.04 and the “ability of recombinant RTK ligand” value (SK-MEL-28, PD184352 - 1 uM, ligand 0.4 ng/ml) was 1.04. The “ability of recombinant RTK ligand” value (SK-MEL-28, PD184352 - 1 uM, ligand 1.6 ng/ml) was 0.95, the “ability of recombinant RTK ligand” value (SK-MEL-28, PD184352 - 1 uM, ligand 6.25 ng/ml) was 0.98 and the “ability of recombinant RTK ligand” value (SK-MEL-28, PD184352 - 1 uM, ligand 25 ng/ml) was 0.78. The “ability of recombinant RTK ligand” value (SK-MEL-28, PD184352 - 1 uM, ligand 100 ng/ml) was 0.99, the “ability of recombinant RTK ligand” value (SK-MEL-28, PLX4720 - 2 uM, ligand 0.4 ng/ml) was 0.94 and the “ability of recombinant RTK ligand” value (SK-MEL-28, PLX4720 - 2 uM, ligand 1.6 ng/ml) was 0.90. For the same molecule, the “ability of recombinant RTK ligand” value (SK-MEL-28, PLX4720 - 2 uM, ligand 6.25 ng/ml) was 0.86, the “ability of recombinant RTK ligand” value (SK-MEL-28, PLX4720 - 2 uM, ligand 25 ng/ml) was 0.82 and the “ability of recombinant RTK ligand” value (SK-MEL-28, PLX4720 - 2 uM, ligand 100 ng/ml) was 0.98.
